Assay results from patent US20210395777.

Molecular target: AAV capsid expressed by the standard BEV1 infection and the v-cath deleted BEV2 infection in Sf9 cells

B1: V-CATH protease (Viral Cathepsin), encoded by the baculovirus v-cath gene of the BEV (protein)
chain: PLEFDWRRLNKVTSVKNQGMCGACWAFATLASLESQFAIKHNQLINLSEQQMIDCDFVDAGCNGGLLHTAFEAIIKMGGVQLESDYPYEADNNNCRMNSNKFLVQVKDCYRYITVYEEKLKDLLRLVGPIPMAIDAADIVNYKQGIIKYCFNSGLNHAVLLVGYGVENNIPYWTFKNTWGTDWGEDGFFRVQQNINACGMRNELASTAVIY
B1 was tested, and the “degradation products of the AAV capsid on Western immunoblot (BEV1 against v-cath deleted BEV2)” value was “Deletion of v-cath eliminated the degradation products”.
